# Measured values taken from the supplement of paper PMC10065799, “High-throughput profiling of sequence recognition by tyrosine kinases and SH2 domains using bacterial peptide display” (eLife, 2023).
# Target: FGFR3 (UniProt P22607)
# Assay: phosphorylation enrichment, bacterial display (enrichment ratio); higher = better substrate or ligand; peptides without Tyr show the background
# 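Further: 11-residue human phosphosite peptides and single-mutation variants displayed on the E. coli surface, counted by deep sequencing, each peptide's frequency after selection divided by its frequency in the unselected input library; frequency after pTyr selection over input frequency; kinase dosed for 20-30% of maximal phosphorylation in three min.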
# FGFR3, sequence (P22607 whole entry, looked up): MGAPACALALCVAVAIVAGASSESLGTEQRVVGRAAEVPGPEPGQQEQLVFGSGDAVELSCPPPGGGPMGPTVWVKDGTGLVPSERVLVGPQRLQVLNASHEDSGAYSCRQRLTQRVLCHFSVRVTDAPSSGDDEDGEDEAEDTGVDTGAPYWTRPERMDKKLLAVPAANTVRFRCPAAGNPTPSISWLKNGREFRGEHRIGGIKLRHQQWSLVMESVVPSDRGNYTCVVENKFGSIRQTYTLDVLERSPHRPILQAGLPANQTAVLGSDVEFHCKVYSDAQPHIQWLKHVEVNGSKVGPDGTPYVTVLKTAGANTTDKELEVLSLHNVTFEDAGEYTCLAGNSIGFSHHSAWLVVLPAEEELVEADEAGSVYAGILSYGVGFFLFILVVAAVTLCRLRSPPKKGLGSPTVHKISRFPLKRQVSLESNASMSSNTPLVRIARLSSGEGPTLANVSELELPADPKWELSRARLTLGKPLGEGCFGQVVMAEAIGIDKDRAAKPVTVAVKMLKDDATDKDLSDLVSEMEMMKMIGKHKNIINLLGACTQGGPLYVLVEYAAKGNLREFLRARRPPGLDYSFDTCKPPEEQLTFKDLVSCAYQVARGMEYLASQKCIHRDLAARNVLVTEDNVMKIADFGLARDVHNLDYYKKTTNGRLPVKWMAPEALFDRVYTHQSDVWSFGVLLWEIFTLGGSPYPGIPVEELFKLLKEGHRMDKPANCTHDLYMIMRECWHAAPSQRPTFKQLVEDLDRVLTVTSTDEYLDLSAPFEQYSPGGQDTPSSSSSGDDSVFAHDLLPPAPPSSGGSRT
row,Sequence,phosphorylation enrichment
1,EVVGGYSVHNA [MLH1_Y183_R182G],0.599
2,DLFRLYICVKE [ARID1B_Y1091_V1092I],1
3,ALHHPYGCDVE [ABL2_Y80_R78H],0.726
4,MSRDVYSIDYY [NTRK2_Y702_T704I],3.12
5,KSDVMYTDWKK [ORM1_Y175_V174M],0.682
6,PRLLRYLQLDF [ASB10_Y457],0.873
7,QRALLYEDALF [UNC13D_Y56_YF],0.896
8,IKKLIYVYLVI [JAGN1_Y42_H44Y],0.452
9,SEHLTYLEFKS [RASGRP1_Y215],1.16
10,SVCPDYDLCSV [SQSTM1_Y148],0.901
11,ITVPAYFNDLQ [HSPA9_Y196_S200L],0.77
12,IAKNPYDPPGR,0.48
13,KPEKTYGLRKE [CEP43_Y267],0.614
14,ASMAKYFASGI [ACADSB_Y372_E376G_YF],0.441
15,QGCGIYKDYYR [PLA2G2D_Y82_S80G],1.19
16,APQFTYAQGGQ [FLNA_Y1763_YF],0.628
17,RRSQSYIPTSG [PLEKHA2_Y185],0.455

row,Sequence,phosphorylation enrichment
1,SAEEDYKADAK [KCNT1_Y876_M877K],0.684
2,FSQNIYIQNRN [PKP2_Y631_YF],0.473
3,TRFDEYLEVTK [MAP1A_Y2217_H2214Y_YF],0.823
4,YEREQYADRAR [RBM4_Y355],0.534
5,LNWIYYKDQTG [RS1_Y166],2
6,YSTDCYRVGGH [NTRK2_Y707_Y706C],0.683
7,EAESWYQTKFE [KRT75_Y342_YF],0.808
8,NTGDYYDLYGG [PTPN11_Y63],13.8
9,VVFIKYLPEWT [PSEN1_Y240_L235V],0.773
10,GPGGDYAAMGA [ERBB3_Y1276],0.605
11,KQLFAYKMLMA [TMC2_Y209_YF],0.677
12,HDRNTYEKFLE [TF_Y666_G671E_YF],0.522
13,LDFNEYFRDLN [HPRT1_Y198_YF],0.697
14,PEAALYGRFTI [FYN_Y440],0.645
15,VNTTLYEKFTF [TEK_Y1108_YF],0.677
16,DKPENYRRLDI [VHL_Y175_V170D],0.467

# Tested on: Fer (mouse)
# Assay: as above
row,Sequence,phosphorylation enrichment
1,EVVGGYSVHNA [MLH1_Y183_R182G],0.372
2,DLFRLYICVKE [ARID1B_Y1091_V1092I],0.591
3,ALHHPYGCDVE [ABL2_Y80_R78H],0.447
4,MSRDVYSIDYY [NTRK2_Y702_T704I],1.22
5,KSDVMYTDWKK [ORM1_Y175_V174M],0.463
6,PRLLRYLQLDF [ASB10_Y457],0.662
7,QRALLYEDALF [UNC13D_Y56_YF],16.1
8,IKKLIYVYLVI [JAGN1_Y42_H44Y],0.323
9,SEHLTYLEFKS [RASGRP1_Y215],0.62
10,SVCPDYDLCSV [SQSTM1_Y148],1.89
11,ITVPAYFNDLQ [HSPA9_Y196_S200L],0.524
12,IAKNPYDPPGR,0.37
13,KPEKTYGLRKE [CEP43_Y267],0.395
14,ASMAKYFASGI [ACADSB_Y372_E376G_YF],0.374
15,QGCGIYKDYYR [PLA2G2D_Y82_S80G],0.67
16,APQFTYAQGGQ [FLNA_Y1763_YF],0.304
17,RRSQSYIPTSG [PLEKHA2_Y185],0.354

row,Sequence,phosphorylation enrichment
1,SAEEDYKADAK [KCNT1_Y876_M877K],0.465
2,FSQNIYIQNRN [PKP2_Y631_YF],0.418
3,TRFDEYLEVTK [MAP1A_Y2217_H2214Y_YF],0.501
4,YEREQYADRAR [RBM4_Y355],0.441
5,LNWIYYKDQTG [RS1_Y166],0.888
6,YSTDCYRVGGH [NTRK2_Y707_Y706C],0.414
7,EAESWYQTKFE [KRT75_Y342_YF],0.624
8,NTGDYYDLYGG [PTPN11_Y63],1.59
9,VVFIKYLPEWT [PSEN1_Y240_L235V],0.538
10,GPGGDYAAMGA [ERBB3_Y1276],0.488
11,KQLFAYKMLMA [TMC2_Y209_YF],0.445
12,HDRNTYEKFLE [TF_Y666_G671E_YF],0.56
13,LDFNEYFRDLN [HPRT1_Y198_YF],0.382
14,PEAALYGRFTI [FYN_Y440],1.67
15,VNTTLYEKFTF [TEK_Y1108_YF],8.38
16,DKPENYRRLDI [VHL_Y175_V170D],0.452

# Target: Fes (UniProt P07332)
# Assay: as above
# Fes, sequence (P07332 whole entry, looked up): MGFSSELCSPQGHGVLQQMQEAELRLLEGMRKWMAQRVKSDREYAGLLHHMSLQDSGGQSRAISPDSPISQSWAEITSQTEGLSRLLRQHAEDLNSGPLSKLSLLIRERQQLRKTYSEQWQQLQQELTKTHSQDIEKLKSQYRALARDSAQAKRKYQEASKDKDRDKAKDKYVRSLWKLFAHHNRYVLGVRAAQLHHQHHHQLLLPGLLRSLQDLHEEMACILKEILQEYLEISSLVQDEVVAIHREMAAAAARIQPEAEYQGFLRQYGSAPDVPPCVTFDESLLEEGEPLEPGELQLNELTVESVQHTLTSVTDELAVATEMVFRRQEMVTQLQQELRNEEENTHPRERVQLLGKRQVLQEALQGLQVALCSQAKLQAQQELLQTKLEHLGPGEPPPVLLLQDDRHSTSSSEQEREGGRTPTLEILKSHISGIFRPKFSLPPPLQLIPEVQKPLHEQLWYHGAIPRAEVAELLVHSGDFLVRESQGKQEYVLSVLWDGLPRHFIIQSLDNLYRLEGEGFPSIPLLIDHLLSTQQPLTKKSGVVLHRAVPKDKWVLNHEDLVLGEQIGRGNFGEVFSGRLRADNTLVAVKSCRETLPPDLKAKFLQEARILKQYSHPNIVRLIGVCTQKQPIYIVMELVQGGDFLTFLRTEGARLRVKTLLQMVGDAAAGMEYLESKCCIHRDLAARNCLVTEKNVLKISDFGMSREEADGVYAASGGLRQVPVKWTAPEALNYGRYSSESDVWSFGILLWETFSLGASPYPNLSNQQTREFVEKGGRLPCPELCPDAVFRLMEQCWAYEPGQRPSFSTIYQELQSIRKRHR
row,Sequence,phosphorylation enrichment
1,EVVGGYSVHNA [MLH1_Y183_R182G],0.729
2,DLFRLYICVKE [ARID1B_Y1091_V1092I],1.61
3,ALHHPYGCDVE [ABL2_Y80_R78H],0.998
4,MSRDVYSIDYY [NTRK2_Y702_T704I],0.9
5,KSDVMYTDWKK [ORM1_Y175_V174M],0.842
6,PRLLRYLQLDF [ASB10_Y457],1.67
7,QRALLYEDALF [UNC13D_Y56_YF],2.16
8,IKKLIYVYLVI [JAGN1_Y42_H44Y],0.97
9,SEHLTYLEFKS [RASGRP1_Y215],1.58
10,SVCPDYDLCSV [SQSTM1_Y148],1.3
11,ITVPAYFNDLQ [HSPA9_Y196_S200L],1.3
12,IAKNPYDPPGR,0.689
13,KPEKTYGLRKE [CEP43_Y267],0.766
14,ASMAKYFASGI [ACADSB_Y372_E376G_YF],0.79
15,QGCGIYKDYYR [PLA2G2D_Y82_S80G],1.59
16,APQFTYAQGGQ [FLNA_Y1763_YF],0.706
17,RRSQSYIPTSG [PLEKHA2_Y185],0.709

row,Sequence,phosphorylation enrichment
1,SAEEDYKADAK [KCNT1_Y876_M877K],1.28
2,FSQNIYIQNRN [PKP2_Y631_YF],0.62
3,TRFDEYLEVTK [MAP1A_Y2217_H2214Y_YF],1.22
4,YEREQYADRAR [RBM4_Y355],0.707
5,LNWIYYKDQTG [RS1_Y166],2.51
6,YSTDCYRVGGH [NTRK2_Y707_Y706C],0.827
7,EAESWYQTKFE [KRT75_Y342_YF],1.18
8,NTGDYYDLYGG [PTPN11_Y63],1.13
9,VVFIKYLPEWT [PSEN1_Y240_L235V],1.23
10,GPGGDYAAMGA [ERBB3_Y1276],0.766
11,KQLFAYKMLMA [TMC2_Y209_YF],0.926
12,HDRNTYEKFLE [TF_Y666_G671E_YF],1.03
13,LDFNEYFRDLN [HPRT1_Y198_YF],1.15
14,PEAALYGRFTI [FYN_Y440],1.11
15,VNTTLYEKFTF [TEK_Y1108_YF],0.989
16,DKPENYRRLDI [VHL_Y175_V170D],0.657

# Target: Fyn (UniProt P06241)
# Assay: as above
# Fyn, sequence (P06241 whole entry, looked up): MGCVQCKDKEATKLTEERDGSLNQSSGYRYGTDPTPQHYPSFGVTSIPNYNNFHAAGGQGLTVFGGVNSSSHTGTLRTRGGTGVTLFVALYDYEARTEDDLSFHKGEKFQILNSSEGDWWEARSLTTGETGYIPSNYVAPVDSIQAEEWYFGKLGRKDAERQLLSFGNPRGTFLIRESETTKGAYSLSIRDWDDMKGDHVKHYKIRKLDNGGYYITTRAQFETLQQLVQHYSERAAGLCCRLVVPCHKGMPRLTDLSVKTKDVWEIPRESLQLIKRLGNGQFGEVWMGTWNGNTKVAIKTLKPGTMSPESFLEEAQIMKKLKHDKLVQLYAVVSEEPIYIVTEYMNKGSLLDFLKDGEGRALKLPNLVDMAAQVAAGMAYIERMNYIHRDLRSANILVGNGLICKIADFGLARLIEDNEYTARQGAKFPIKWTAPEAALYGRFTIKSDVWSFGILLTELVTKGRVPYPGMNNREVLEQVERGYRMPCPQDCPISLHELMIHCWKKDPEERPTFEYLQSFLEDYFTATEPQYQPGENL
row,Sequence,phosphorylation enrichment
1,EVVGGYSVHNA [MLH1_Y183_R182G],0.324
2,DLFRLYICVKE [ARID1B_Y1091_V1092I],0.456
3,ALHHPYGCDVE [ABL2_Y80_R78H],0.44
4,MSRDVYSIDYY [NTRK2_Y702_T704I],8.72
5,KSDVMYTDWKK [ORM1_Y175_V174M],0.485
6,PRLLRYLQLDF [ASB10_Y457],0.692
7,QRALLYEDALF [UNC13D_Y56_YF],1.54
8,IKKLIYVYLVI [JAGN1_Y42_H44Y],0.412
9,SEHLTYLEFKS [RASGRP1_Y215],6.61
10,SVCPDYDLCSV [SQSTM1_Y148],0.689
11,ITVPAYFNDLQ [HSPA9_Y196_S200L],0.452
12,IAKNPYDPPGR,0.344
13,KPEKTYGLRKE [CEP43_Y267],0.46
14,ASMAKYFASGI [ACADSB_Y372_E376G_YF],0.386
15,QGCGIYKDYYR [PLA2G2D_Y82_S80G],5.71
16,APQFTYAQGGQ [FLNA_Y1763_YF],0.574
17,RRSQSYIPTSG [PLEKHA2_Y185],0.707

row,Sequence,phosphorylation enrichment
1,SAEEDYKADAK [KCNT1_Y876_M877K],0.534
2,FSQNIYIQNRN [PKP2_Y631_YF],0.447
3,TRFDEYLEVTK [MAP1A_Y2217_H2214Y_YF],0.571
4,YEREQYADRAR [RBM4_Y355],0.37
5,LNWIYYKDQTG [RS1_Y166],1.32
6,YSTDCYRVGGH [NTRK2_Y707_Y706C],0.438
7,EAESWYQTKFE [KRT75_Y342_YF],0.662
8,NTGDYYDLYGG [PTPN11_Y63],5.18
9,VVFIKYLPEWT [PSEN1_Y240_L235V],0.335
10,GPGGDYAAMGA [ERBB3_Y1276],0.414
11,KQLFAYKMLMA [TMC2_Y209_YF],0.475
12,HDRNTYEKFLE [TF_Y666_G671E_YF],0.741
13,LDFNEYFRDLN [HPRT1_Y198_YF],0.465
14,PEAALYGRFTI [FYN_Y440],7.72
15,VNTTLYEKFTF [TEK_Y1108_YF],2.48
16,DKPENYRRLDI [VHL_Y175_V170D],0.46
